This data set relates to Escherichia coli TOP10. As to the kind of experiment: shrunken log2 fold change of peptide-encoding DNA abundance (4.5 h post-induction vs induction); higher = less antimicrobial activity (less host growth inhibition). The note with it: time post-induction: 4.5 h; library: site-saturation at positions 5, 18, 19, 20.
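Note: peptides expressed intracellularly from a pBAD plasmid library in pooled LB shake-flask culture, induced with 0.3% L-arabinose, DNA abundance read by NGS, three biological replicates, DESeq2 with apeglm shrinkage.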

With RRIRQRPPRLPRPRPRPRIWPRP, the “shrunken log2 fold change” value was 0.123.

As for RRIRCRPPRLPRPRPRPWEFPRP, the “shrunken log2 fold change” value stood at 0.0363.

Take RRIRNRPPRLPRPRPRPPRKPRP: the “shrunken log2 fold change” value came to 0.523.

On to RRIRIRPPRLPRPRPRPYKYPRP, for which the “shrunken log2 fold change” value is -0.89.

Consider RRIRPRPPRLPRPRPRPAVDPRP, for which the “shrunken log2 fold change” value came out at 0.249.

As for RRIRSRPPRLPRPRPRPAALPRP, the “shrunken log2 fold change” value is -0.0411.

Consider RRIRKRPPRLPRPRPRPYDKPRP, for which the “shrunken log2 fold change” value is -0.124.

Consider RRIRQRPPRLPRPRPRPMKVPRP, for which the “shrunken log2 fold change” value was found to be 0.0879.

Take RRIRGRPPRLPRPRPRPPDCPRP: the “shrunken log2 fold change” value came out at 1.28.

Take RRIRWRPPRLPRPRPRPRPAPRP: the “shrunken log2 fold change” value was 0.865.

Take RRIRKRPPRLPRPRPRPSWPPRP: the “shrunken log2 fold change” value stood at 0.321.

For RRIRARPPRLPRPRPRPIPGPRP, the “shrunken log2 fold change” value was determined as 0.0653.

Turning to RRIRIRPPRLPRPRPRPNQEPRP, the “shrunken log2 fold change” value is -0.177.

As to RRIRIRPPRLPRPRPRPMRAPRP, the “shrunken log2 fold change” value stood at 1.01.

Take RRIRVRPPRLPRPRPRPDRMPRP: the “shrunken log2 fold change” value was -0.268.

Regarding RRIRWRPPRLPRPRPRPVHRPRP, the “shrunken log2 fold change” value worked out at 0.181.

As for RRIRGRPPRLPRPRPRPWSNPRP, the “shrunken log2 fold change” value was -0.116.

Regarding RRIRLRPPRLPRPRPRPRGPPRP, the “shrunken log2 fold change” value stood at 0.865.

RRIRHRPPRLPRPRPRPVAVPRP: the “shrunken log2 fold change” value is -0.0993.

In the case of RRIRPRPPRLPRPRPRPGWRPRP, the “shrunken log2 fold change” value was determined as 0.438.

Regarding RRIRPRPPRLPRPRPRPTHTPRP, the “shrunken log2 fold change” value was 0.13.

As to RRIRERPPRLPRPRPRPQNQPRP, the “shrunken log2 fold change” value was -0.612.

RRIRQRPPRLPRPRPRPTKYPRP: the “shrunken log2 fold change” value was -0.257.

RRIRYRPPRLPRPRPRPHHFPRP: the “shrunken log2 fold change” value was -0.288.

As for RRIRERPPRLPRPRPRPEGLPRP, the “shrunken log2 fold change” value is -0.00749.

On to RRIRGRPPRLPRPRPRPHTGPRP, for which the “shrunken log2 fold change” value was -0.0945.

Take RRIRFRPPRLPRPRPRPAEFPRP: the “shrunken log2 fold change” value was 1.14.

As to RRIRARPPRLPRPRPRPGTCPRP, the “shrunken log2 fold change” value stood at 0.153.

Turning to RRIRLRPPRLPRPRPRPEKEPRP, the “shrunken log2 fold change” value came to 0.263.

In the case of RRIRTRPPRLPRPRPRPAYMPRP, the “shrunken log2 fold change” value was -0.384.

Regarding RRIRFRPPRLPRPRPRPKISPRP, the “shrunken log2 fold change” value is -0.596.

Turning to RRIRQRPPRLPRPRPRPFYYPRP, the “shrunken log2 fold change” value is -0.59.

Take RRIRPRPPRLPRPRPRPWRYPRP: the “shrunken log2 fold change” value was -0.0238.

For RRIRVRPPRLPRPRPRPHMQPRP, the “shrunken log2 fold change” value is 0.0906.

Turning to RRIRKRPPRLPRPRPRPTDRPRP, the “shrunken log2 fold change” value worked out at 0.209.

With RRIRGRPPRLPRPRPRPTHEPRP, the “shrunken log2 fold change” value turned out to be 1.34.

With RRIRMRPPRLPRPRPRPFERPRP, the “shrunken log2 fold change” value came to 0.122.

Consider RRIRERPPRLPRPRPRPAGRPRP, for which the “shrunken log2 fold change” value worked out at 0.0837.

With RRIRRRPPRLPRPRPRPAWEPRP, the “shrunken log2 fold change” value stood at 0.301.

Turning to RRIRYRPPRLPRPRPRPASVPRP, the “shrunken log2 fold change” value is -0.256.

On to RRIRLRPPRLPRPRPRPITWPRP, for which the “shrunken log2 fold change” value was -0.543.

With RRIRDRPPRLPRPRPRPMLLPRP, the “shrunken log2 fold change” value worked out at 0.307.

As for RRIRWRPPRLPRPRPRPQMKPRP, the “shrunken log2 fold change” value is -0.316.

As to RRIRLRPPRLPRPRPRPSLGPRP, the “shrunken log2 fold change” value is -0.213.

In the case of RRIRNRPPRLPRPRPRPHNLPRP, the “shrunken log2 fold change” value was -0.272.

Consider RRIRFRPPRLPRPRPRPYQSPRP, for which the “shrunken log2 fold change” value was -0.00405.

Consider RRIRYRPPRLPRPRPRPHCCPRP, for which the “shrunken log2 fold change” value is -0.0599.

Consider RRIRTRPPRLPRPRPRPNIMPRP, for which the “shrunken log2 fold change” value is -0.526.

Turning to RRIRGRPPRLPRPRPRPEVMPRP, the “shrunken log2 fold change” value was determined as 1.41.

Take RRIRHRPPRLPRPRPRPAPAPRP: the “shrunken log2 fold change” value was 0.289.

With RRIRIRPPRLPRPRPRPWNMPRP, the “shrunken log2 fold change” value worked out at 0.0777.

For the sequence RRIRARPPRLPRPRPRPQTSPRP, the “shrunken log2 fold change” value came out at 0.00801.

Consider RRIRSRPPRLPRPRPRPIRKPRP, for which the “shrunken log2 fold change” value was determined as 0.143.

RRIRHRPPRLPRPRPRPTWPPRP: the “shrunken log2 fold change” value came to 0.25.

Turning to RRIRCRPPRLPRPRPRPYEYPRP, the “shrunken log2 fold change” value was -0.769.

Consider RRIRKRPPRLPRPRPRPQYEPRP, for which the “shrunken log2 fold change” value was 0.0265.

As for RRIRLRPPRLPRPRPRPDLMPRP, the “shrunken log2 fold change” value is -0.145.

Consider RRIRRRPPRLPRPRPRPADEPRP, for which the “shrunken log2 fold change” value is 2.06.

In the case of RRIRTRPPRLPRPRPRPTINPRP, the “shrunken log2 fold change” value is -0.565.

Regarding RRIRLRPPRLPRPRPRPNDSPRP, the “shrunken log2 fold change” value was -0.0215.

Take RRIRDRPPRLPRPRPRPHSHPRP: the “shrunken log2 fold change” value is -0.19.

Consider RRIRERPPRLPRPRPRPQQVPRP, for which the “shrunken log2 fold change” value was -0.0841.

As for RRIRTRPPRLPRPRPRPGNVPRP, the “shrunken log2 fold change” value was 0.0939.

For the sequence RRIRIRPPRLPRPRPRPMFFPRP, the “shrunken log2 fold change” value is -0.534.

Turning to RRIRCRPPRLPRPRPRPPTCPRP, the “shrunken log2 fold change” value worked out at 0.183.

For the sequence RRIRGRPPRLPRPRPRPHRMPRP, the “shrunken log2 fold change” value is -0.101.

Consider RRIRVRPPRLPRPRPRPYTYPRP, for which the “shrunken log2 fold change” value is 0.128.

Turning to RRIRPRPPRLPRPRPRPWSWPRP, the “shrunken log2 fold change” value turned out to be 0.217.

In the case of RRIRMRPPRLPRPRPRPYYPPRP, the “shrunken log2 fold change” value is -0.159.

As to RRIRDRPPRLPRPRPRPCASPRP, the “shrunken log2 fold change” value was -0.0652.

For RRIRIRPPRLPRPRPRPPLKPRP, the “shrunken log2 fold change” value is -0.105.

Take RRIRFRPPRLPRPRPRPWFDPRP: the “shrunken log2 fold change” value was -0.101.

For the sequence RRIRDRPPRLPRPRPRPHIWPRP, the “shrunken log2 fold change” value is -0.0717.

As to RRIRIRPPRLPRPRPRPPEFPRP, the “shrunken log2 fold change” value is -0.0754.

Consider RRIRYRPPRLPRPRPRPLYKPRP, for which the “shrunken log2 fold change” value was -0.229.

On to RRIRPRPPRLPRPRPRPKTRPRP, for which the “shrunken log2 fold change” value is 0.382.

For RRIRNRPPRLPRPRPRPMLSPRP, the “shrunken log2 fold change” value came to 0.081.

Take RRIRGRPPRLPRPRPRPIQGPRP: the “shrunken log2 fold change” value is -0.0132.

Take RRIRFRPPRLPRPRPRPGMKPRP: the “shrunken log2 fold change” value was -0.0551.

RRIRGRPPRLPRPRPRPNHTPRP: the “shrunken log2 fold change” value was -0.144.

As to RRIRCRPPRLPRPRPRPQWFPRP, the “shrunken log2 fold change” value was -0.106.

As to RRIRMRPPRLPRPRPRPMTVPRP, the “shrunken log2 fold change” value worked out at 0.0944.

RRIRDRPPRLPRPRPRPGKEPRP: the “shrunken log2 fold change” value is -0.0214.

Turning to RRIRMRPPRLPRPRPRPCREPRP, the “shrunken log2 fold change” value is -0.126.

As for RRIRVRPPRLPRPRPRPSNNPRP, the “shrunken log2 fold change” value was -0.662.

Turning to RRIRPRPPRLPRPRPRPPTNPRP, the “shrunken log2 fold change” value amounted to 0.222.

With RRIRPRPPRLPRPRPRPDGVPRP, the “shrunken log2 fold change” value stood at 0.14.

On to RRIRHRPPRLPRPRPRPWTSPRP, for which the “shrunken log2 fold change” value was -0.00277.

For RRIRRRPPRLPRPRPRPKAPPRP, the “shrunken log2 fold change” value was found to be 0.0122.

For RRIRKRPPRLPRPRPRPHNTPRP, the “shrunken log2 fold change” value is -0.152.

Consider RRIRMRPPRLPRPRPRPSSKPRP, for which the “shrunken log2 fold change” value worked out at 1.87.

Turning to RRIRNRPPRLPRPRPRPIGTPRP, the “shrunken log2 fold change” value amounted to 0.000741.

Take RRIRRRPPRLPRPRPRPEGDPRP: the “shrunken log2 fold change” value came out at 0.956.

Take RRIRQRPPRLPRPRPRPGTAPRP: the “shrunken log2 fold change” value came out at 0.206.

In the case of RRIRSRPPRLPRPRPRPSVVPRP, the “shrunken log2 fold change” value is -0.219.

As to RRIRVRPPRLPRPRPRPSFMPRP, the “shrunken log2 fold change” value was -0.384.

For the sequence RRIRSRPPRLPRPRPRPNTDPRP, the “shrunken log2 fold change” value was -0.442.

For RRIRYRPPRLPRPRPRPSQEPRP, the “shrunken log2 fold change” value is -0.748.

Consider RRIRLRPPRLPRPRPRPIREPRP, for which the “shrunken log2 fold change” value is -0.27.

On to RRIRPRPPRLPRPRPRPTWYPRP, for which the “shrunken log2 fold change” value was -0.133.

With RRIRLRPPRLPRPRPRPTGWPRP, the “shrunken log2 fold change” value worked out at 0.303.

RRIRGRPPRLPRPRPRPHAAPRP: the “shrunken log2 fold change” value is 1.47.

With RRIRDRPPRLPRPRPRPRCGPRP, the “shrunken log2 fold change” value was determined as 0.565.

As to RRIRTRPPRLPRPRPRPIMLPRP, the “shrunken log2 fold change” value is -0.32.

On to RRIRFRPPRLPRPRPRPATFPRP, for which the “shrunken log2 fold change” value is -0.207.

As for RRIRDRPPRLPRPRPRPEIKPRP, the “shrunken log2 fold change” value turned out to be 1.54.

For RRIRWRPPRLPRPRPRPHEVPRP, the “shrunken log2 fold change” value was found to be 0.169.

With RRIRSRPPRLPRPRPRPICQPRP, the “shrunken log2 fold change” value was -0.00676.

As to RRIRVRPPRLPRPRPRPKLKPRP, the “shrunken log2 fold change” value amounted to 0.00388.

As for RRIRFRPPRLPRPRPRPIESPRP, the “shrunken log2 fold change” value is -0.15.

With RRIRARPPRLPRPRPRPHSVPRP, the “shrunken log2 fold change” value was 0.0268.

Consider RRIRKRPPRLPRPRPRPQKHPRP, for which the “shrunken log2 fold change” value was determined as 0.224.

Take RRIRRRPPRLPRPRPRPNLFPRP: the “shrunken log2 fold change” value amounted to 0.177.

Regarding RRIRCRPPRLPRPRPRPIQHPRP, the “shrunken log2 fold change” value is -1.21.

RRIRSRPPRLPRPRPRPLRGPRP: the “shrunken log2 fold change” value turned out to be 0.897.

For RRIRGRPPRLPRPRPRPQDHPRP, the “shrunken log2 fold change” value came to 0.254.

Regarding RRIRARPPRLPRPRPRPYMDPRP, the “shrunken log2 fold change” value was -0.0602.

Take RRIRGRPPRLPRPRPRPMMLPRP: the “shrunken log2 fold change” value is 0.158.

On to RRIRKRPPRLPRPRPRPEMAPRP, for which the “shrunken log2 fold change” value is 1.73.

Consider RRIRTRPPRLPRPRPRPNQWPRP, for which the “shrunken log2 fold change” value is -0.0389.

Regarding RRIRSRPPRLPRPRPRPYCAPRP, the “shrunken log2 fold change” value was -0.698.

For the sequence RRIRLRPPRLPRPRPRPLQMPRP, the “shrunken log2 fold change” value was -0.135.

RRIRNRPPRLPRPRPRPGYTPRP: the “shrunken log2 fold change” value is -0.501.

On to RRIRTRPPRLPRPRPRPWHSPRP, for which the “shrunken log2 fold change” value was -0.274.

For RRIRYRPPRLPRPRPRPDVRPRP, the “shrunken log2 fold change” value is -0.0526.

The values above are taken from the supplement of paper PMC9112550, “Optimization of the antimicrobial peptide Bac7 by deep mutational scanning” (BMC Biology, 2022).
